Our source for the stoichiometry N values is PMC3322552.

The target in the test is Caulobacter crescentus ScsC with a His tag, without signal sequence (Caulobacter crescentus). As to the kind of experiment: SEC.

What is called stoichiometry N is the number of molecules, sites or subunits per partner or assembly. “Caulobacter crescentus ScsC with a His tag, without signal sequence (natural protein)” displayed a stoichiometry N of 2.
